Target: T1, glutathione S transferase (pGEX-4T-2 vector control lysate) (UniProt P08515 1-218 = GST)
T1 construct: In a bacterial lysate; also called GST; Control bacterial lysates encoding only glutathione S transferase
Assay: Western or dot blot, bacterial lysate

T1 sequence (P08515 whole entry): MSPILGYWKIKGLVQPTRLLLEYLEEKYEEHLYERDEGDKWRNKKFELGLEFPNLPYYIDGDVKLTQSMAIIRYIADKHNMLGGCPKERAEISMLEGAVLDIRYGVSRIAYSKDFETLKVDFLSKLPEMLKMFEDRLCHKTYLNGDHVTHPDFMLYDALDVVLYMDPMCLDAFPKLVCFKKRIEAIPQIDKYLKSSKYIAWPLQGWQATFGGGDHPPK

B1: monoclonal antibody mab 166 (antibody, V domains shown)
VH: QVQLKQSGPGLVQPSQSLSITCTVSGFSLTSYGVHWVRQSPGKGLEWLGVIWSGGDTDYNAAFISRLSISKDNSKSQLFFKMNSLRATDTAIYYCARNRGDIYYDFTYAMDYWGQGTSVTVSS
VL: DIQMTQSPASLSASVGETVTITCRASGNIQNYLAWYQQTQGKSPQLLVYSAKTLADGVPSRFSGSGSGTQYSLKINSLQPEDFGSYYCQHFWSTPYTFGGGTKLEIKR
notes: also called mabl66; m166
binding result: no binding
